In a protein production outcome set (Wang et al. 2014):

Experiment: label from the status in PepcDB records

Row | Sequence | protein production
1 | MPRKKKTVEDPALTRALKVMEAGALPDADLAAEFATLAESYGKLLRKFNKTLVISDAYEAQHQAMAKKLEEATWKYRQLKDVALPICMYCKKIRSDDDYWQRLETFFCNHADIMFSHGICPDCIKTAYEKMGMNRRAMPLPDAAVTGQPAASPERQPVEDDALREMRALVRRSAFDGSPVAPEVEQFVEKYGKLLRRFSKIVSISDSYQSQLRELNARLELMARTDLLTGLANHWEMVMRLAAEQSRSERNGKVFSIVLADIDHFKKVNDTHGHQAGDRVIRGIADTLRTNIRREDICSRWGGEEFLIILPEADLPRAGAVAAKLLAKVRNTVVPWDGRDIRVTVSIGYGTSEPGMSVDELIRRVDDALYSAKAAGRDRFAAAGSRADV | failed
2 | MPRLPRPPGSSTLRPGAVALGRPDPGPDLNSPEGLIRAARDWLGAGDDQRARLALDRALALRPRAAEALLLRGLVDQRRGDLAAAAEWFRRAIRARKDFADAHLNLGSCLIGLGQTEEALRQFGRAVALAPGMALAHLNLAQALLDQGDLGRARSAIDRARALAPDALPILLARARILAAQEDYEAAGAAWEDCVARAPGDVLVLNDAANFLLEDNRVEDSLALYRRAVALAPTSQEVRKNLIRALMTTGALDEAEAEAVGWLGTQGEDPRFRRLLGDVLVRAGRFPEARSAYVAAWDALPEDDNIPLGLTATGKMKSGEALGDRILERWTAQGAAGVVSADIAYAAGKVLDDRQDYDGAFAAFAQANRLKAADHPFDADAHDRFVEAVSTVFTPALFERFAGLGSPSETPVLVVGLPRSGTTLVEQIIASHPQAAGAGELTHVSRFEHSLPWRVGEAGRRGYPACVAGLDGAILDRFTAHYLHELTRIGPKARRVVDKLPNNFLRLGLFALAFPKARIIHCRRDLVDTCLSLYFQSFAGGHEYRHDLVSLGRYARAYLAMMAHWRRVLPLPMLEVDYADVVADQEKASRTMLEFLGLAWDEVVLRFHKREATVATASRWQVRQPIYATSVARWRRYEQHLSPLLLSLEGKKPSKG | failed
3 | MPRRFRQANARLTILSGGIPYLTNTMTLPDRFQQADAVPDDLQQLEARLAEAEDILLRDSPQAEATAREVLAGATAAGCQSLALRSRTVLGRSLAHQKRNEQATELLESVVAESRSAKMPELLVHAWLGLGLAHLNERRMARGLQAYLEALKICESLNAPELSLRVLTNLASAYAKLEQYDTAQPYLTEAHDTARQLGQPFDLMITSLNLACVCQLSGGTGAALTLIEEALRHAKTVASPRYLKSVLFHFSQLLLDLDRLSEALTYCEQGLNTDSGFGTATPQCELQVTHGEILYGLGRPAEARPALEAGLRAAQDLRLNDAEGRARRCYAQLLEDQDDYQGALAQVRALAQLEHDLREQLAAVNLQLEAERLRSETLAEKRRLKEEGRTQQRLAAQLRHDALTGLPNRLALHEALGQQVAADSAPFALLCLDLDHFKTVNHTLGQPAGDALLLYIGERVQAAVGEQGQTFRRGGNEFVVLLPAVRAAPDALTIAQTLLDTINEPLLLDGQALVVTASIGLALFPEDGRDSLTLQKNADLALHAAKQEGGQAQRYRNALSQAANERLELTQALRSGIGNGELVLHYQPIVEVRSGKTVAVEALVRWQHPRLGLLSPDRFIGLAEDNGLIVPLGRWVLNTALRQLAAWREHWPELRVSVNMAPRQLQQPGSCQEIRDALRAYALPPDALELEITEQTICDEEALEPFLPLIREGLRLAIDDFGTGYSSLSRLYRLPAQILKLDRSLIQDLSADNATDGPLVSALIAFAQRFGMQVTAEGIETAEQLHLLRQ | failed
4 | MPRRKTKKREEGLSAIDLANEEMGYVLSLIERTDQSLFLTGKAGTGKSTLLRHICATTHKKFVVLAPTGLAALNVGGQTLHSFFKLPLRPIPPNDPDLSTRDRRVFDVFRYTNEHKKLIRSLDLIIIDEVSMVRADVIDAIDKLLGIYRGRQERPFGGVQMLFVGDLYQLEPVVTADDADILKRFYPNPFFFSSEALRATPPVTVELTKVYRQTEQAFVQILDRIRSGRLTEQDLQDINKCVNRHYEPPKDEPVITLATKRRHVSYINERQLEQLQGDPVTLYGTIEGDFPSSSLPTEEELTLKQDAQVIFVSNDKDRRWVNGTLGIVAGFDQESETIDVCLSTGEVVTVEPCIWDNKRFSYNEQANKVEEEVLGRFVQYPLKLAWAITVHKSQGLTFDRVIIDFSEGTFAGGQAYVALSRCRSLEGMVLRAPLAGRDVIVRREIIDFYSRANDLEIINGSLLRAEAEREYAQALRLWNARHYTEAIGAFSQALARKNELDDPLFRRLLVSKLFEMEYARRREEELRRELAEQREVMRRLAKEYVLMGNDCITEAHDAHAAIRCYDKALTLYPDYVEALVRKGKTLAGLNEITTSLSTLNQAIAIAPMDFTARFTLGQVLEKFAYYEEALDAYRQADGLNSQSRSLLKRLIALCEELDEEDEANLYRIRLRKNRDQTGHK | failed
5 | MPRWLIQHSPNTLTPEEKSHLAQQITQAYVGFGLPAFYVQVHFIEQPAGTSFIGGEQHPNFVALTIYHLARTMTSDEQRQGFLKRIDAFLTPMFEPKGIDWEYFVTEAPRDLWKINGLAPPAAGSEEEKVWVRENRPVRF | not failed
6 | MPRWLPRAMVLALALIAAFQLGSWAFHQLTGLLINVLIAFFLALAIEPAVSWMAGRGMRRGFATFLVFLAVLIAAAGFVTLLGSMLAGQIVKMVEEFPDYLDSVINWVNGHFHTELRRVDIQEGLLRSDWLRNYVQNSATGVLDVSAQVLGGLFQLLTVLLFSFYFAADGPRLRRGLCSVLPPARQAEVLRAWEIAVDKTGGYLYSRGLMALVSGVAHYILLEILEVPYAPALAVWVGLVSQFIPTIGTYLAGALPMLIAFTVNPWYALWVLVFVVIYQQFENYVLQPKLTSKTVDIHPAVAFGSVIAGTALLGAVGALIAIPAVATLQAFLGAYVKRYDVTDDPRVHGRRGRRSVSGTSTRLRKLWTRRPEPGLEGPERTEGPERTEGGEGTDGTRDGGSS | failed
7 | MPSAMNERTVAELEKLLRYIAANLKQRGREILTNYPITPPQFVALQWLLEEGDLTVGELSNKMYLACSTTTDLVDRMERNGLVARVRDEHDRRVVRIRLLEKGERIIEEVIEKRQRDLANVLESFSDEEIVVFERCLRKLHQEMTKE | not failed
8 | MPSDSLRVGVLTGGGDCPGINAALRAVTKSLTLQHDAEVLGFLDGFRGVVDRNVEPLHYRDVSGILTRGGTILGASNKADPFNYLPRGGADVSAQVMRTYRTLDLDALVAIGGDGTMSIAHRLTDLGVDIVGVPKTIDNDLVGTDRTVGFDTAVSTATDAIDRIHTTAQSHHRVMIVETMGRYSGWIALHAGVASGTDVILLPEIEYEVETVADVCRDRERSGQRFTIVAVAEGARRKEGDYVVQERGDEYTDSIRLGGISRVLADQLREHLDTSIRTTVLGHMQRGGSPTAYDRTLATTLGTRAATLVAEGTTGVMVAVQNDAFTQVPLDEIAGKTRTVPLDDPLIASGLDVGTSFGVAVSDLSEAASHSKPASPIQP | failed
9 | MPSEKQPQSKGNKMAILKLDEHLYISPQLTKADAEQIAQLGIKTIICNRPDREEESQPDFAQIKQWLEQAGVTGFHHQPVTARDIQKHDVETFRQLIGQAEYPVLAYCRTGTRCSLLWGFRRAAEGMPVDEIIRRAQAAGVNLENFRERLDNARV | not failed
10 | MPSFRITRKVRHSATQMYDLVADIERYPEFLPLCESLRVLRDAEGPNGTTVRVAEMGVGYKAIRERFTTRVSLDRENRKIVAEYIDGPFRHLENRWSFRDAEGGGCEVDFFITYEFKSRTLGLLMGTMFDRAFRKFTDAFEGRATAIYGVPA | failed
11 | MPSGLEQCAPRCRALLQGESGVQIQGHYELKFEAVREAFAALFEDSQERGAALCIQVGGETVIDLWAGTADKDGAEAWHSDTIANLFSCTKTFTAVTALQLVAEGKLKLDAPVADYWPEFAAAGKAAITLRQLLCHQAGLPAVRELLPAQALYEWQTMVDALAAEQPWWTPGEGHGYAAITYGWLVGELIRRADGRGPGESIVARVARPLGLDFHVGLADEEFYRVAHIARGKGNMGDAAAQRLLQVTMREPDAMSTRAFTNPPSILTSTNKPEWRRMQQPAANGHGNARSLAGFYSGLLDGSLLEADMLEELTREHSLGMDKTLLTQTRFGLGCMLDQPQVANATFGLGARAFGHPGAGGSIGFADPEHDVAFGFVTNTLGPYVLMDPRAQKLVRVLSDCLLEHHHHHH | failed
12 | MPSIIDETVFGEPSRRLAVVYLCGALLLAGQQGYYVIIEGATPFYAGLLLSAGMALSGIAESLPKPRRRAAGVLRLTALVVLVSLLVILFVTPDLLTN | failed
13 | MPSIISDNPKNWSEEIKNYLCRSSPERYEKMATNNAIEPYISKAISWGYAEWKNRKTLLDDIETEMLRLATLPDLSDFNDNEIYSSKKNYLSKEILENYLIKASPENFNTVFRQPGWKSHVNFLIEKGNRELERQIINGNGVENSVDTVCAELAKLMNDFENSFFDEIYGNSTPRYLLPNLFEKAIAEYKLLATIKERTRFIEAFIEIVMFDWQFSGTLDSDLFKNAYSKEVLYYYGIGARLFVLGEFKEAQEYFKKIINIEPKPIDYLMLSKTYRALNEKVETFNTIKDGLTHFPNDFLLTLALSGTLYWMGETKLANETLEPVKKDFNTMYKSEIEGAKKLAVEISEAIKCDKIYRDQKNDIYDDKYTKKAWYQYWYHYNCFRPTQHPEAYMIDYIPRYLTSIAKDATITLKGVLDFGTLCAEPLYRFAKNNPEIQCVGIDRQDLVKELNDKAYSLNNLRFEAGDIFEYLEHFALLVPNHRMLFHCRTAVLCYPNFLLKLYKKCAELGIEYICLMESNSLSRDTLTFYNYGEMPNISIARRGSLINHDYFLLLEQSGYEIVKKDFHLAPHLLEDYAALIGSNTTLVAQLKLLTQSQ | failed
14 | MPSLFSLYRKIFFGRKPGWDQQPLPYIKVTAPNVRVSEAKISQYAQVCGFDFDGKLLPPTYLYVMAFRLHAVIFTHDGITFPLLGMIHLKNRIQVYRPAAVDEVFALECALTTSRETDSGLEFEFVSKAFVGEELVWESLSTYLYRIETAGRRVRPPKALDMAWDSPQSWELGEDLGRRYAKASGDYNLIHLHPMLSKRFGFDRVLAHGMWSKARCLAELMPEIGERPFVVDVAFKLPLLMPAEVGFGYEKTEDKWVFELRDSKGRRPHLSGEVQL | failed
15 | MPSPVEADAKVTMRLRYTKTGAMRYLSHLEMIGLFTRAVGRARLPIRFSQGFHPHPKFSFATALSVGVESWAEYLDMELIPSLTPGEVRDRLNAALPEGMRIVEAVVIPPGTPSLSVLMDKVRYRIILLEEAARDLAARAEAFLARDSFPLRRAKKGRIQEYDLEHHHHHH | failed
16 | MPSQDYLRVLNPSLSGPTPIAFIILALISAGLLIIIWRNRDLISTDNLRGKIIFIVISAALIFTFGRISFALSEVLIFLWALSILWIRGNTDNIEMNLAMAAWVLAYLYMHSFHPVKADRYIITVLPALAYAISLSLNNLSALMRSRRASTVLSIAVTLLMVSSAIHYTAGWPQEYGIVKGERSGAWLMNHDPSYRDRVIAADRGPAFTWYLGDYVFTRIIHPQRRELSLKYFYEVNPDYYIFWTGKTELPEGYRVIYSRDGVPLPGRFSRYAGILPLRYRIQWMLR | failed
17 | MPSRRRFVLALAAALPAAGLLSACGFHLRGNNDFAFKRLYINLPQNSQMRAQLRRLIDNGSDTVVVSDKQDADAFLDVLSENRVKTISSLTPQGVVREYRITYRFSFQLRDAHDNLLIPPSEITLFRDLSYNETQVLAKDYEEAALYRDMQGDIVNQLVRRLASVRLPSLEHHHHHH | failed
18 | MPTALGYVSIGLACGIIGAPYVTPVEMGLMSLFVYAGSAQFAMLALIVVQAPVAAIAMTVFLINLRLFLLSLHASTYFRHTSLWYNIGMSSILTDETYGVLMGELAHTDKVNPMWMHGNNLNSYVAWFVGTVVGTALGGLLPNPEIFGLDFALVGMFIGIFASQFQIMQRRIPVRNLLIILAVVAVSFFLLLTVMSQSLAVLFATLLGCSMGVVLDGQ | failed
19 | MPTFLLVNDDGYFSPGINALREALKSLGRVVVVAPDRNLSGVGHSLTFTEPLKMRKIDTDFYTVIDGTPADCVHLGYRVILEEKKPDLVLSGINEGPNLGEDITYSGTVSGAMEGRILGIPSIAFSAFGRENIMFEEIAKVCVDIVKKVLNEGIPEDTYLNVNIPNLRYEEIKGIKVTRQGKRAYKERVFKYIDPYGKPFYWIAAEEFGWHAEEGTDYWAVLNGYVSVTPLHLDLTNYKVMKSIKYLEDSP | not failed
